The data set in a line: label from the status in PepcDB records.
On to “MKTREYYVAAAAGLIGGNVSSFVKWGTEIPFPPRTPDRPIPPLEMLDSLGINANQLTYVYSEHMVNYGSALIHQSFSIFFAIFYCLTALRYPRVAVWQGFGFGMLVTLAFHGVLLPMFHWAPPLWELPPAEWASETFGHLLWIWVIEVIRRDLQQRWSPGPG”, for which the protein production result is listed as “failed”.
Turning to “ARTYRGVELIPVENIYYFLADQKYVTVRHKNGSVLIDETLKELELEFQNRFIRIHRNALVSVDYLDGLEVISSGQYQVRCREVNERLAVSRRHLPYLRDRMQKM”, the protein production result is listed as “failed”.
As for “MQVQELVGIVPWNFIATICNLFIQVYLIKRFLFKPVNEMLEKRRAKADAEIQDAVKAKEEAEVMKAEYEKNMQEAKEKANDIVLTAQKTAAVQSEEMLKEASSQVTAMKEKAEKDIAQERRKAVNEIKGEIGGMAVEIAGKVIEREINEEDHTKLINDFIENVGEAS”, the protein production entry is reported as “not failed”.
For the sequence “MPLPRVSPVPLAGPGRRGEGGVSSAPLAGGPWAAGRRRLPGLLIIFRRVFTVGFWVGGVLAKKYPFLLGLDRVLELVTGFRGEAARRVLAGDEDLVGLGFRRAVAAVEGWLDYPFADTVEGEVASFYLGLAIAYRAGPAAVSRVVAGEYLRASRLLAGEPGEVASGILGGLGFPVERGGLSVPWVVDRRGVVMLPLGWRMGVDVFLRLSAADESSPELRLANQMLLSGSVYLSDARLRALASAASRLAIESRVSEAASLESEAVERYARHLAALAEGGLPFIPEALPQCIKNVFAKAVGGERLGWLELYLALVFLARIRAGPDAVEELLTPSLGERVARLLARVYSQAPPADHQLPPCEVLAASGVCRCRGSLLSEYRRSVRSLLGLPDRGAGRR”, the protein production entry was “failed”.
Consider “MNDALHIGLPPFLVQANNEPRVLAAPEARMGYVLELVRANIAADGGPFAAAVFERDSGLLIAAGTNRVVPGRCSAAHAEILALSLAQAKLDTHDLSADGLPACELVTSAEPCVMCFGAVIWSGVRSLVCAARSDDVEAIGFDEGPRPENWMGGLEARGITVTTGLLRDAACALLREYNACNGVIYNARCGVHK”, for which the protein production result was “not failed”.
Take “MDLVSLVERIGEAPTAALFGLITGITFGVAAQRSRFCLRAATVEFARGRMEDKVAVWLLTFSTALVWVQAAQLMGLMNGADARMMAVPGSWSGAIIGGLMFGAGMVLARGCSGRLLVLAATGNLRSVVSGLIFAVVAQMSLSGLLSPLRDKLAALWITEGGRNMNLLSTFGLPEYGGLVLGLVCAVLALVLARRHRIGAARLVFASGVGFAVALGWVLTYALSQVAFEPVQIESATFTGPSAHTLMFFLDRNAVLEFDVGLVPGVFIGAMIAAALAGEMKIQAFDGPVTMRKAMIGAALMGFGGMLAGGCAIGAGVTGGSIFVGTAWAALFFMWVGAMATDFLIDQRAASPRAA”: the protein production result is recorded as “failed”.
With “VINLKELKILHTSDWHLGVTSWTSSRPVDRREELKKALDKVVEEAEKREVDLILLTGDLLHSRNNPSVVALHDLLDYLKRMMRTAPVVVLPGNHDWKGLKLFGNFVTSISSDITFVMSFEPVDVEAKRGQKVRILPFPYPDESEALRKNEGDFRFFLESRLNKLYEEALKKEDFAIFMGHFTVEGLAGYAGIEQGREIIINRALIPSVVDYAALGHIHSFREIQKQPLTIYPGSLIRIDFGEEADEKGAVFVELKRGEPPRYERIDASPLPLKTLYYKKIDTSALKSIRDFCRNFPGYVRVVYEEDSGILPDLMGEIDNLVKIE”, the protein production result was “not failed”.
With “SSKPPPKPVKPGEGGQVKVFRALYTFEPRTPDELYFEEGDIIYITDMSDTNWWKGTSKGRTGLIPSNYVAEQAESIDNPLHEAAKRGNLSWLRECLDNRVGVNGLDKAGSTALYWACHGGHKDIVEMLFTQPNIELNQQNKLGDTALHAAAWKGYADIVQLFLAKGARTDLRNIEKKLAFDMATNAACASLLKKKQGTDAVRTLSNAEDYLDDEDSD” the entry was “failed”.
Turning to “MRDILFIYLLTLGIKLYAYFLSGFTAILADAFHSVIDITMILILLLSERYAEKEADYQHPFGHEMARNVASLAVGVGFITFMFFELMKEGLLKVLHPASGYSNVEVALGAEVAVLALLVIAALISARRSGILNRTLLVESLNDSLSTLAAIVGVGLVWAGYPIFDGIATIAIAFIIFYNSFRLVRDNARLLIGMSPSEDFYRSVEDACLEIERVKGVHDMVGVYTGENSVHLDLHVTVDGAMTIEEADKLSVEIAEAIMAKHPEVKHISVHFCPHDGRRRKLY”, the protein production entry is reported as “failed”.
In the case of “MSTRSARIVVVSSRAAAGVYTDDCGPIIAGWLEQHGFSSVQPQVVADGNPVGEALHDAVNAGVDVIITSGGTGISPTDTTPEHTVAVLDYVIPGLADAIRRSGLPKVPTSVLSRGVCGVAGRTLIINLPGSPGGVRDGLGVLADVLDHALEQIAGGDHPR”, the protein production result was “not failed”.
Then “MTTAKRDTYTPETLLSVAVQVFIERGYDGTSMEHLSKAAGISKSSIYHHVTGKEELLRRAVSRALDELFGILDEEHARVGTAAERLEYVVRRMVEVLMAELPYVTLLLRVRGNTGTERWALERRREFDHRVAALLKDAAAEGDVRADVEVRLATRLVFGMINSIVEWYRPEGPDGRSDASGASGVSGAGEREVVDAVARLVFGGLRKAS”, with “not failed”.
On to “MAPNASCLCVHVRSEEWDLMTFDANPYDSVKKIKEHVRSKTKVPVQDQVLLLGSKILKPRRSLSSYGIDKEKTIHLTLKVVKPSDEELP”, for which the protein production result was “failed”.
Then “MAETLITKPPLSLSFTSLSSMLPSLSLSTANRHLSVTDTIPLPNSNSNATPPLRIAIIGFGNYGQFLAETLISQGHILFAHSRSDHSSAARRLGVSYFTDLHDLCERHPDVVLLCTSILSIENILKTLPFQRLRRNTLFVDVLSVKEFAKTLLLQYLPEDFDILCTHPMFGPQSVSSNHGWRGLRFVYDKVRIGEERLRVSRCESFLEIFVREGCEMVEMSVTDHDKFAAESQFITHTLGRLLGMLKLISTPINTKGYEALLDLAENICGDSFDLYYGLFVYNNNSLEVLERIDLAFEALRKELFSRLHGVVRKQSFEGEAKKVHVFPNCGENDASLDMMRSEDVVVKYEYNSQVSGSVNDGSRLKIGIVGFGNFGQFLGKTMVKQGHTVLAYSRSDYTDEAAKLGVSYFSDLDDLFEEHPEVIILCTSILSTEKVLESLPFQRLKRSTLFVDVLSVKEFPRNLFLQTLPQDFDILCTHPMFGPESGKNGWNNLAFVFDKVRIGMDDRRKSRCNSFLDIFAREGCRMVEMSCAEHDWHAAGSQFITHTVGRLLEKLSLESTPIDTKGYETLLKLVENTAGDSFDLYYGLFLYNPNAMEQLERFHVAFESLKTQLFGRLHSQHSHELAKSSSPKTTKLLTS”, with “failed”.
For the sequence “MSLEESLEQLKRQYLHALPDKKKQIITLWVSLRKNWQSYMLSAVYREVHNLKGSSETFGLTETKDIVDKLELQLKNLLDAPAPTLNLIKGLDTLFHQLLQNNQHYLPAAPVVEAQMQQNPYNPSKARHEYCIAIIEDDNNVGAMITKQLHEFGFNVQHFLNFTDFIKVQYASPFDLILLDLILPDYTEDALFEAACEFEKNNTRVFVLSSRSDFDMRLLAIRANVSEYFVKPAETTLLVRKIHQWLKMSDKPPLKVLLVDDQQSMVDYFSSLLRSHGLMVRGMTKPEQVIPTLEQFEPDLFIFDLYMPGVNGLELARMIRQLDKYTSSPILVLSSDDTMQNKVSIIQAGSDDLISKQTAPSLFVTQVISRAQRGHDIRSSASRDSLTGLLNHTQILVAARHCINLAKRANSSVCIAMLDLDHFKQVNDTYGHSGGDKVLLAFAHLLQQSLRAADFMGRYGGEEFMLVIPDMPAPLVIAKVNAIRESFSNIVFVEEGAEFKVTLSGGLAFSTECHEFQECLLLADKNLYEAKRTGRNRIINTLVK”, the protein production result was “failed”.
Take “MMKRARIIYNPTSGRELFKKSLPEVLQKLEQAGYEASCHATTGPGDATVAARQAVERKFDVVIAAGGDGTLNEVVNGLVGHEFRPKFGIIPVGTTNDFARAIGVPRSIEEAADIICEGKTVPLDLGRANDTYFINIAGGGRITELTYEVPSKLKTVLGQLAYYLKGIEMLPSLHPTYVEIEYDGKLLQEEITMFLITNTRSVGGFEKVAPYASINDGLFDLLVLKKGSIADLIKAATQAQRGEHINNPKVLYTQANRIKVHSPDKLMINLDGEYGGDAPMEFENMYHCLELFVPEHQEDAL”: the protein production result is recorded as “failed”.
With “QADAGPDKELTLPVDSTTLDGSKSSDDQKIISYLWEKTQGPDGVQLENANSSVATVTGLQVGTYVFTLTVKDERNLQSQSSVNVIVKEE”, the protein production result is on record as “not failed”.
Turning to “MPSETTEHKTGPAVTVVIVSYQSGPTLEPCLARLAAQTFRDFETILIDNFSTDGAPQAAAKAHPWVDFVEAGANLGFAAGNNLAARRAKGRWLVLLNPDAYAEPDWLEELMAGAARHPTVKSFASLQLSADRPGLLDGAGDNVTSAGIPFRGGYGRKPPAVLPEGEVFSACGAAMLIDRDLFLSVGGFDERYFCYCEDVDLGYRLRLYGEPTLLLPKAKVAHVGSASTGVRSDFSIFHGSRNRVWTFLKNTPGWLLPVTLPLHVAVTAGLLLLHWRRGDVAPAIRGIRAALKREDLDQVMADRRLIQARRKASPGAILRVMSIDPAAFIGRRFVIRKWRGA”, the protein production result is listed as “failed”.
As to “TGGLAIIQSMKHKLPPSERKLADYILAHPHKAIESTVNEISALANSSDAAVIRLCKSLGLKGFQDLKMRVAGDLAKPTFQGYRDIVPHEPLPSISEKTAGNAIQAI”, the protein production result is given as “failed”.
As for “LQPNMRTRVCTVINNNIAHEWTLARIASELLMSPSLLKKKLREEETSYSQLLTECRMQRALQLIVIHGFSIKRVAVSCGYHSVSYFIYVFRNYYGMTPTEYQERSAQRLSNRDSAAS”, the protein production entry is listed as “not failed”.
On to “MASQTNQTVVDTKKIETENPPKPQVPASSCRKRVKDDNATFFANLKDHMDEFIHASMDEHKTCFKNTMDKIFGSFSKAEAVAEKQIEAKEVVEIHSPLQTAVTK”, for which the protein production result is on record as “not failed”.
With “MILTRSSLVKRLTLMIMFAVIAVLVVAGISFNMLSQHHFRMLDEQALSEKLESTRHILSIQAPGTGMEELRPQLRALLGAHQDLTAEILTSEGEVLFSDLKAVQIPDKYKRADKEEMWEWQDESHNFRGITTDVEIQGQPAPGTVMLMLDITSHAHFFETLQRWFAIGLVISALVSAGIGWLVAKSGLRPVEQITKVATSISARSLQERIPLEPVPLELQTLILSFNGMLARLEDAFVRLSNFSADIAHELRTPVSNLLTHTEVVLTRKRDVDAYEENLYSNLEDLKRMSRMIDDMLFLAKSDNGLIIPEQVDIQLHDLVSKLFEYYQLLADDRGIRLTLQGKGVISGDRLMIDRAVSNILSNAVRYTPDGSGISVEIQQAADKVTLTIKNGGATIDPQHINKIFDRFYRADPARREGGPSNAGLGLAITRSIVKAHDGKVWCTSSEGVTAFNFIFPAAHRTAHIRTRH” the entry was “failed”.
Take “LENQISFRKALSDSLPNPTYVVNWQGNVISHNSAFEHYFTADYYKNAMLPLENSDSPFKDVFSNAHEVTAETKENRTIYTQVFEIDNGIEKRCINHWHTLCNLPASDNAVYICGWQDITETRDLINALEVEKNKAIKATVAKSQFLATMSHEIRTPISSIMGFL”: the protein production entry is given as “failed”.
As to “MKKQLIILTTLSTCIFLSACNDNNDSGSYVSSPSIPENNIQNPVVRMDAYTSTDMSLVANESLLMTYKMLGINNKEVQATALVFTPKGVPPVGGWPIVAWAHGTTGVADVCAPSRNVMDENVKTMITQLLAQGYVVVAPDYEGLGEPSGKEIHPFLNVKSEAYSITDAVVAAKSYLGAKAATRWVAVGHSQGGQAALGAAQYASRAKLTYKGTIAVAPASNLDLILNAGELSAANQPVAVQIPTYTNLDTYTALITAGLRNPNPSLQYSQIFKTPSDSIAAQAESVCAPALGQSFAAGLTEYSNKNNNTLVGYGRTQDGFLNLPVVKNFTSTDGQPLTVKVSTPIKIYQGQADTTVPLIATNKLVTEAKLAGTNINFITNETWTHGSAYSLNISNIVTDVNTLFTQ”, the protein production result is given as “failed”.

The record behind these values is a protein production outcome set (Wang et al. 2014).
